For test [1], the target named is T1, human OT-R (Homo sapiens, UniProt P30559).
T1 construct: expressed in transfected cells; host or cells: HEK293, stably transfected
T1 sequence (P30559 1-389): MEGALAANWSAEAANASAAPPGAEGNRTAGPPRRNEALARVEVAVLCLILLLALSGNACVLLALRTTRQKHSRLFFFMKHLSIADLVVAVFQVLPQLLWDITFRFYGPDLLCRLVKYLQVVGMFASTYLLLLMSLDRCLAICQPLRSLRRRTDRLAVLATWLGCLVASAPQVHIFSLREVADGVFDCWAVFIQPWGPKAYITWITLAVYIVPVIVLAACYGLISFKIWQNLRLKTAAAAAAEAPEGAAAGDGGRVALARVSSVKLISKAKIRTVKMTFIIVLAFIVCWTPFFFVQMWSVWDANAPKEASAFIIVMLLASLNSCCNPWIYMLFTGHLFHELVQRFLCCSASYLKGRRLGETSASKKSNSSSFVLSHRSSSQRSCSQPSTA
Briefly: In vitro oxytocin receptor activation assay (intracellular Ca2+ mobilization, Fluo-4). In kind it is cell-based. To be noted: HEK293 cells expressing human OT-R; ATP 10^-4 M as positive control; IgG applied without OT. (Calcium flux is commonly read through the fluorescence of an indicator in the cells.)
Description: Cells were grown on DMEM medium (Gibco, Thermo Fisher Scientific) with 10% FBS and 0.6% Penicillin/Streptomycin (Merck). To prepare assay plates, cell line was treated with 0.25% trypsin-EDTA (Gibco), cell pellet was resuspended in medium and filed in a flat clear bottom black 96-microwell plate (Greiner Bio-One, Les Ulis, France) at a rate of 50000 cells per well, which was coated during 1 h at 37°C with 100µg/mL of Poly-L-Lysin (Merck) and 1 h with 100µg/mL of Collagen I (Institut de Biotechnologie Jacques Boy, Reims, France). The microplate was incubated 24 hours at 37°C with 5% of CO2.
Briefly, confluent cells were incubated 45 min at 37°C with 2 µM Fluo-4 acetoxymethyl ester (AM) calcium dye (Life Technologies, Villebon-sur-Yvette, France) in complete HBSS, washed twice and incubated in 200 µL of the same complete medium at 37°C for 20 min. Fluorescence was recorded using a Flexstation III fluorescence microplate reader system (Molecular Devices, Saint-Grégoire, France) during 180 s with an excitation wavelength of 485 nm, an emission wavelength of 525 nm and a cutoff filter of 515 nm. […]
Ca^2+ releasing kinetics were determined, as well as area under curve, the maximal fluorescence peak and the time for which this maximum is reached. Fluorescence data were calculated as mean +/- SEM.

Test [2] deals with green-fluorescence protein (GFP)-labeled human OT-R in HEK293 cells (human) (UniProt P30559).
Test [3] has as its target human oxytocin receptor, stably transfected in HEK293 cells (human) (UniProt P30559).

oxytocin, sequence (P01178 whole entry, looked up): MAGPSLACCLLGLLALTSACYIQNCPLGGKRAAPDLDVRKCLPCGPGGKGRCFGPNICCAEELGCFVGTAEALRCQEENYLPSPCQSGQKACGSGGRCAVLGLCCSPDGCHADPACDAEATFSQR

For `Nc1ncnc2c1ncn2[C@@H]1O[C@H](COP(=O)(O)OP(=O)(O)OP(=O)(O)O)[C@@H](O)[C@H]1O` [ATP, adenosine triphosphate], in test [1], the “intracellular Ca2+ mobilization (result in words)” value is recorded as “mild increase”.
On to “oxytocin (from UniProt P01178 20-28) (peptide)”, for which, in test [2], the half-time internalization rate of GFP-labeled OT-R (membrane/cytoplasmic fluorescence, exponential decay model), OT alone turned out to be 16.7 min; the half-time internalization rate of GFP-labeled OT-R (membrane/cytoplasmic fluorescence, exponential decay model), OT in immune complex with plasma IgG of aggressors was 23.3 min; the half-time internalization rate of GFP-labeled OT-R (membrane/cytoplasmic fluorescence, exponential decay model), OT in immune complex with plasma IgG of controls is 6.4 min. In test [3], this molecule gave an EC50 of Ca2+ release in OT-R expressing cells, OT dose-response with OT preincubated with plasma IgG of aggressors (OT/IgG IC, fixed IgG 840 nM) of 6.1 nM; an EC50 of Ca2+ release in OT-R expressing cells, OT dose-response with OT preincubated with plasma IgG of controls (OT/IgG IC, fixed IgG 840 nM) of 3.1 nM; an intracellular Ca2+ mobilization in HEK293 cells stably transfected with human OT-R, OT alone at 10^-7 M (fold over basal levels) of 3.5.

The record behind these values is publication PMC10587035 (Discover Mental Health, 2023).
